US20030148958A1 (PROCTER AND GAMBLE, published 2003)
Ends that are not written are not given here.

T1: corticotropin releasing factor 2 receptor
T1 sequence (Q13324 whole entry, species assumed, looked up): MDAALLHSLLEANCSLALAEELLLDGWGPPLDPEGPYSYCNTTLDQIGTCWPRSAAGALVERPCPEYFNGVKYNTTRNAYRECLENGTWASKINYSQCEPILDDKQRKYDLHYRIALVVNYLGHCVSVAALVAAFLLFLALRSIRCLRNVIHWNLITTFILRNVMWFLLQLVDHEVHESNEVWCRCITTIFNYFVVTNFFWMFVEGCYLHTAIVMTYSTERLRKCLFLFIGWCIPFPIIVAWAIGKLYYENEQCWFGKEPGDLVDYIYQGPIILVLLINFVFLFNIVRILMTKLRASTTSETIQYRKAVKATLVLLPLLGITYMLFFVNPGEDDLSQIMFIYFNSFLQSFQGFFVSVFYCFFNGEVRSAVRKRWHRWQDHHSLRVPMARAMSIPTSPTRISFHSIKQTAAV

T2: CRF2R
T2 sequence (Q13324 whole entry, species assumed, looked up): T1 sequence (Q13324 whole entry, species assumed, looked up)


Target: T1, corticotropin releasing factor 2 …
Test: cell-based or functional assay
Throughout, for CRF1R Emax %: reference of the scale not given here.
Throughout, for CRF1R Emax: reference of the scale not given here.
Throughout, for CRF2R Emax %: reference of the scale not given here.
Throughout, for CRF2R Emax: reference of the scale not given here.

Row | CRF2R EC50 [nM] | CRF2R Emax [%] | Binder
1 | 8.33 | 100 | ZGPPISIDLPFQLLRKMIEIEKQEKEKQQATTNARLLDRV (C-terminal amide) [SEQ ID NO 22]
2 | 10.2 | 100 | ZGPPISIDLPFQLLRKMIEIEKQEKEKQQATTNARLLARV (C-terminal amide) [SEQ ID NO 23]
3 | 43.1 | 100 | ZGPPISIDLPITLLRKMIEIEKQEKEKQQAANNRLLLDTI (C-terminal amide) [SEQ ID NO 24]
4 | 10.2 | 97 | ZGPPISIDLPWQLLRKMIEIEKQEKEKQQAANNRLLLDTI (C-terminal amide) [SEQ ID NO 210]
5 | 7.4 | 93 | ZGPPISIDLPWHLLRKMIEIEKQEKEKQQAANNRLLLDTI (C-terminal amide) [SEQ ID NO 209]
6 | 59.5 | 100 | ZGPPISIDLPAQLLRKMIEIEKQEKEKQQAANNRLLLDTI (C-terminal amide) [SEQ ID NO 211]

Target: corticotropin releasing factor 1 receptor
Test: cell-based or functional assay

Row | CRF1R EC50 [nM] | CRF1R Emax [%] | Binder
7 | 1000 | 64 | ZGPPISIDLPFQLLRKMIEIEKQEKEKQQATTNARLLDRV (C-terminal amide) [SEQ ID NO 22]
8 | 1000 | 82 | ZGPPISIDLPFQLLRKMIEIEKQEKEKQQATTNARLLARV (C-terminal amide) [SEQ ID NO 23]
9 | > 1000 | 18 | ZGPPISIDLPITLLRKMIEIEKQEKEKQQAANNRLLLDTI (C-terminal amide) [SEQ ID NO 24]
10 | 43.5 | 90 | ZGPPISIDLPWQLLRKMIEIEKQEKEKQQAANNRLLLDTI (C-terminal amide) [SEQ ID NO 210]
11 | 26.4 | 80 | ZGPPISIDLPWHLLRKMIEIEKQEKEKQQAANNRLLLDTI (C-terminal amide) [SEQ ID NO 209]
12 | 826 | 37 | ZGPPISIDLPAQLLRKMIEIEKQEKEKQQAANNRLLLDTI (C-terminal amide) [SEQ ID NO 211]

Target: T2, CRF2R
Test: cell-based or functional assay

Row | CRF2R EC50 [nM] | CRF2R Emax % [%] | Binder
13 | 100 | 59 | NDDPPISIDLPLLLLRNMIEMARIENEREQAGLNAKYLAEV-NH2 [SEQ ID NO 268]
14 | 100 | 92.2 | NDDPPISIDLPFHLLRNMIEMARIENEREQAGLNAKYLAEV-NH2 [SEQ ID NO 262]
15 | 48.1 | 69 | NDDPPISIDLPLYLLRNMIEMARIENEREQAGLNAKYLAEV-NH2 [SEQ ID NO 271]
16 | 100 | 19.3 | NDDPPISIDLPLQLLRNMIEMARIENEREQAGLNAKYLAEV-NH2 [SEQ ID NO 270]
17 | 100 | 95.3 | NDDPPISIDLPFYLLRNMIEMARIENEREQAGLNAKYLAEV-NH2 [SEQ ID NO 261]
18 | 100 | 66.3 | NDDPPISIDLPFFLLRNMIEMARIENEREQAGLNAKYLAEV-NH2 [SEQ ID NO 264]
19 | 100 | 19.4 | NDDPPISIDLPTYLLRNMIEMARIENEREQAGLNAKYLAEV-NH2 [SEQ ID NO 266]
20 | 100 | 89.3 | NDDPPISIDLPFLLLRNMIEMARIENEREQAGLNAKYLAEV-NH2 [SEQ ID NO 260]
21 | 100 | 72.6 | NDDPPISIDLPLFLLRNMIEMARIENEREQAGLNAKYLAEV-NH2 [SEQ ID NO 257]
22 | 100 | 49.3 | NDDPPISIDLPFQLLRNMIEMARIENEREQAGLNAKYLAEV-NH2 [SEQ ID NO 258]
23 | 100 | 44.2 | NDDPPISIDLPYYLLRNMIEMARIENEREQAGLNAKYLAEV-NH2 [SEQ ID NO 267]
24 | 23.3 | 100 | ZGPPISIDLPFQLLRKVIEIEKQEKEKQQAANNAELLAEI (not fully specified; C-terminal amide) [SEQ ID NO 272]
25 | 46.6 | 100 | ZGPPISIDLPFQLLRKVIEIEKQEKEKQQAANNANLLANI (not fully specified; C-terminal amide) [SEQ ID NO 275]
26 | 13.8 | 100 | ZGPPISIDLPFQLLRKVIEIEKQEKEKQQAANNAKLLAKI (not fully specified; C-terminal amide) [SEQ ID NO 274]
27 | 28.2 | 100 | ZGPPISIDLPFQLLRKVIEIEKQEKEKQQAANNAHLLAHI (C-terminal amide) [SEQ ID NO 277]
28 | 22.1 | 100 | ZGPPISIDLPFQLLRKVIEIEKQEKEKQQAANNAQLLAQI (not fully specified; C-terminal amide) [SEQ ID NO 276]
29 | 31.3 | 100 | ZGPPISIDLPFQLLRKVIEIEKQEKEKQQAANNAQLLAHI (not fully specified; C-terminal amide) [SEQ ID NO 273]
30 | 12.6 | 100 | ZGPPISIDVPFQLLRKMIEIEKQEKEKQQAANNRLLLDTI (C-terminal amide) [SEQ ID NO 256]
31 | 100 | 77.3 | NDDPPISIDLPLILLRNMIEMARIENEREQAGLNAKYLAEV-NH2 [SEQ ID NO 269]
32 | 100 | 23.4 | NDDPPISIDLPQYLLRNMIEMARIENEREQAGLNAKYLAEV-NH2 [SEQ ID NO 265]
33 | 100 | 65 | NDDPPISIDLPLHLLRNMIEMARIENEREQAGLNAKYLAEV-NH2 [SEQ ID NO 259]
34 | 36.2 | 93 | DNPSLSIDLPYYLLRTLLELARTQSQRERAEQNAIIFASV-NH2 [SEQ ID NO 263]

Target: CRF1R
Test: cell-based or functional assay

Row | CRF1R EC50 [nM] | CRF1R Emax % [%] | Binder
35 | 1000 | 14.2 | NDDPPISIDLPLLLLRNMIEMARIENEREQAGLNAKYLAEV-NH2 [SEQ ID NO 268]
36 | 408 | 100 | NDDPPISIDLPFHLLRNMIEMARIENEREQAGLNAKYLAEV-NH2 [SEQ ID NO 262]
37 | 815 | 80.7 | NDDPPISIDLPLYLLRNMIEMARIENEREQAGLNAKYLAEV-NH2 [SEQ ID NO 271]
38 | 1000 | 7.85 | NDDPPISIDLPLQLLRNMIEMARIENEREQAGLNAKYLAEV-NH2 [SEQ ID NO 270]
39 | 274 | 100 | NDDPPISIDLPFYLLRNMIEMARIENEREQAGLNAKYLAEV-NH2 [SEQ ID NO 261]
40 | 704 | 100 | NDDPPISIDLPFFLLRNMIEMARIENEREQAGLNAKYLAEV-NH2 [SEQ ID NO 264]
41 | 1000 | 4.45 | NDDPPISIDLPTYLLRNMIEMARIENEREQAGLNAKYLAEV-NH2 [SEQ ID NO 266]
42 | 834 | 89.7 | NDDPPISIDLPFLLLRNMIEMARIENEREQAGLNAKYLAEV-NH2 [SEQ ID NO 260]
43 | 744 | 83.5 | NDDPPISIDLPLFLLRNMIEMARIENEREQAGLNAKYLAEV-NH2 [SEQ ID NO 257]
44 | 1000 | 23.6 | NDDPPISIDLPFQLLRNMIEMARIENEREQAGLNAKYLAEV-NH2 [SEQ ID NO 258]
45 | 1000 | 22.8 | NDDPPISIDLPYYLLRNMIEMARIENEREQAGLNAKYLAEV-NH2 [SEQ ID NO 267]
46 | 1000 | 51.1 | ZGPPISIDLPFQLLRKVIEIEKQEKEKQQAANNAELLAEI (not fully specified; C-terminal amide) [SEQ ID NO 272]
47 | 1000 | 38.3 | ZGPPISIDLPFQLLRKVIEIEKQEKEKQQAANNANLLANI (not fully specified; C-terminal amide) [SEQ ID NO 275]
48 | 508 | 80.9 | ZGPPISIDLPFQLLRKVIEIEKQEKEKQQAANNAKLLAKI (not fully specified; C-terminal amide) [SEQ ID NO 274]
49 | 1000 | 39.9 | ZGPPISIDLPFQLLRKVIEIEKQEKEKQQAANNAHLLAHI (C-terminal amide) [SEQ ID NO 277]
50 | 1000 | 75.7 | ZGPPISIDLPFQLLRKVIEIEKQEKEKQQAANNAQLLAQI (not fully specified; C-terminal amide) [SEQ ID NO 276]
51 | 1000 | 59.3 | ZGPPISIDLPFQLLRKVIEIEKQEKEKQQAANNAQLLAHI (not fully specified; C-terminal amide) [SEQ ID NO 273]
52 | 254 | 100 | ZGPPISIDVPFQLLRKMIEIEKQEKEKQQAANNRLLLDTI (C-terminal amide) [SEQ ID NO 256]
53 | 1000 | 44.3 | NDDPPISIDLPLILLRNMIEMARIENEREQAGLNAKYLAEV-NH2 [SEQ ID NO 269]
54 | 1000 | 9.3 | NDDPPISIDLPQYLLRNMIEMARIENEREQAGLNAKYLAEV-NH2 [SEQ ID NO 265]
55 | 820 | 83.6 | NDDPPISIDLPLHLLRNMIEMARIENEREQAGLNAKYLAEV-NH2 [SEQ ID NO 259]
56 | 802 | 72 | DNPSLSIDLPYYLLRTLLELARTQSQRERAEQNAIIFASV-NH2 [SEQ ID NO 263]
